Measured values reported in patent publication US20210355229A1 (JIANGSU HENGRUI MEDICINE, published 2021).

T1: human OX40-His protein (sinobiological # 10481-H08H) (human, UniProt P43489 29-216)
T1 construct: Bought; analyte in Biacore; not shown: His tag
T1 sequence (looked up): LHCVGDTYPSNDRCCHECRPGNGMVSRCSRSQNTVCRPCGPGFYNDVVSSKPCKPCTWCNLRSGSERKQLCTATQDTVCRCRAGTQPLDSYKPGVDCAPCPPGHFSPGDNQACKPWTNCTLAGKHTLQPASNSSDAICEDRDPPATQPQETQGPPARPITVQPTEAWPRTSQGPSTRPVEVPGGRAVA

T2: human OX40 on Jurkat-NF-Kb luc-hOX40 cells (human, UniProt P43489 29-277)
T2 sequence (looked up): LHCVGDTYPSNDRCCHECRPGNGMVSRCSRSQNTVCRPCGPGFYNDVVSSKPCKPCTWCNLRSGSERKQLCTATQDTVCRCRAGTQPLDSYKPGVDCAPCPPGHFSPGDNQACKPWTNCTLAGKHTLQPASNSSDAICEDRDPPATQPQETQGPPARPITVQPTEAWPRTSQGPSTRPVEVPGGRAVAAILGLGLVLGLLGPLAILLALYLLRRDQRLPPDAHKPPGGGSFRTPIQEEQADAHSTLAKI

T3: human OX40-FC-biotin (human OX40 recombinant protein with Fc tag, Acro Biosystems OX40-H5255, labeled with … (human, UniProt P43489 29-216, labeled with biotin (site not stated)))
T3 construct: range 29-216; Bought (Acro Biosystems OX40-H5255; printed once as OXO-H5255), expressed in HEK293; also called human Bio-OX40-FC; not shown: Fc tag of the bought protein
T3 sequence (looked up): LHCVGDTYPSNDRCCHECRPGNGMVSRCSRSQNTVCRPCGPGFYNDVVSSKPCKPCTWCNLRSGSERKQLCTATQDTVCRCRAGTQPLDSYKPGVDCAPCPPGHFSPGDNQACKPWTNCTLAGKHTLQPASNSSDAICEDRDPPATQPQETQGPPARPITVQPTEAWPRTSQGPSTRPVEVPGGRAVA


Experiments:
[1] = target: T1, human OX40-His protein (sinobiological …); assay: SPR (Biacore T200), antibody coupled to CM5 chip, OX40-His as analyte, 1:1 model
Description: Using the kit provided by Biacore, the recombinant anti-OX40 antibody to be tested of the present invention was covalently connected to the CM5 (GE) chip by NHS standard amino coupling method. A series of concentration gradients of human OX40-His protein (sinobiological # 10481-H08H) diluted in the same buffer were then loaded into each cycle at a flow rate of 30 μL/min. After loading, the chip was regenerated using regeneration reagent provided in the kit. The antigen-antibody binding kinetics was traced for 3 minutes, and the dissociation kinetics was traced for 10 minutes. The resulting data were analyzed by using BIAevaluation software (GE) with 1:1 (Langmuir) binding model.

[2] = target: T2, human OX40 on Jurkat-NF-Kb luc-hOX40 …; assay: cell-based or functional assay
[3] = target: T3, human OX40-FC-biotin (human OX40 …); assay: blocking ELISA: OX40L coated, biotin-OX40-Fc pre-incubated with antibody, SA-HRP
Description: The well-plate was coated with the OX40 ligand (Acrobiosystem, OXL-H52Q8), blocked, added the gradient-diluted antibody to be tested (the antibody was diluted in a solution comprising human Bio-OX40-FC (Acrobiosystem, OX40-H5255, labeled with biotin), pre-incubated for 40 minutes, and then added into the plate), incubated for 40 minute, and washed. SA-HRP (Jackson Immunoresearch, 016-030-084) was then added and incubated for 40min. The developing solution and stop solution were added, and the OD value was measured.

[4] = target: T3, human OX40-FC-biotin (human OX40 …); assay: capture ELISA, biotin-OX40-Fc
Description: 20xPBS buffer was diluted to 1 xwith deionized water. […] 100 μL of the diluted primary antibody was added to each well (the antibody to be tested was 5-fold diluted from the concentration of 10000 ng/ml, resulting in seven gradients, namely 10000 ng/ml, 2000 ng/ml, 400 ng/ml, 80 ng/ml, 16 ng/ml, 3.2 ng/ml, and 0.64 ng/ml, blank wells merely contained dilution solution, i.e., 2.5% skimmed milk in PBST), and incubated at 37° C. for 40 minutes. The plate was washed for 4 times with PBST, human OX40-FC-biotin (Acro biosystem, OXO-H5255, labeled biotin) was diluted with 2.5% skimmed milk in PBST, 100 μl was added to each well, incubated at 37° C. for 40 min, and the plate was washed for 4 times with PB ST. 100 μL TMB developing solution was added to each well, incubated for 3-15 minutes in dark at room temperature, 50 μl stop solution (1M sulfuric acid) was added to each well. The parameters were set for the microplate reader, the OD value was read at 450-630nm, and the test data were saved.

Kd [1]	koff [1]	kon [1]	EC50 (nM), activation of reporter gene (luciferase, Jurkat-NF-Kb luc-hOX40 cells with Raji cells, anti-CD3 coated) [2]	IC50 [3]	EC50 [4]	Binder
2.81 nM	0.000369 s⁻¹	131000 M⁻¹ s⁻¹	0.341 nM	0.725 nM	0.254 µg/mL	humanized antibody hu4B5-V7 (antibody, human IgG1, kappa, V domains shown) VH: QVQLKESGPGLVKPSETLSLTCTVSGFSLTSYGLHWFRQPPGKGLEWIGVIWSGGSTDYNAAFISRVTISKEDSKSQVSLKLSSVTAADTAVYYCAREEYDVWGQGTTVTVSS VL: DIQMTQSPSSLSASVGDRVTITCRASQDISNYLNWYQQKPGGVPKLLIYYTSRLHSGVPSRFSGSGSGTDYTLTISSLQPEDVATYYCQQGNTLPWTFGGGTKVEIKR
4.63 nM	0.00202 s⁻¹	437000 M⁻¹ s⁻¹	2.29 nM	1.88 nM	–	humanized antibody 2G3 (antibody, human IgG1, kappa, V domains shown, also called 2G3 (hu2G3 VH1.1 + hu2G3 VL1)) VH: QVQLQESGPGLVKPSETLSLTCTVSGYSISRYSVHWVRQPPGKGLEWIGMIWDGGNTDYNAALKSRFTISRDNAKNTLYLQMNSLRAEDTAVYYCARNPLYFSYAMDYWGQGTLVTVSS VL: DIQMTQSPSSLSASVGDRVTITCRASQDISNYLNWYQQKPDQSPKLLIIYTSRLQSGVPSRFSGSGSGTDYTLTISSLQPEDFATYYCQQVNTFPFTFGQGTKLEIKR
